Laboratory results published in patent publication US20060281899A1, “Mutants of biotin binding protein” (priority 2002, published 2006).

What was measured:
[1] = IASyS reversibility of biotin binding of avidin and AVRs; settings: biotin cuvette, after addition of free biotin (0.17 mg/ml)
Protocol: The reversibility of biotin binding was studied as follows: Avidin and the AVRs were allowed to bind to a biotin-coated cuvette. After measuring the initial binding (A) as described above, biotin-saturated (0.17 mg/ml) buffer was injected into the cuvette and the amount of proteins remaining bound was measured until no dissociation was seen, again as compared to the negative control cuvette (B). The measurement time was at least 20 minutes. The percent reversibility was calculated as follows: reversibility (%)=100*(A−B)/A. A−B is the amount of liberated proteins after biotin adding.

[2] = Non-reducing SDS-PAGE thermostability, oligomeric forms after boiling; type: physicochemical; settings: boiled 20 minutes
Protocol: The heat stability of the AVRs was studied by using an SDS-PAGE-based method (Bayer, E. A., Ehrlich-Rogozinski, S. and Wilchek, M. (1996) Electrophoresis 17, 1319-1324). In this method, each protein sample was divided into two fractions one of which was kept biotin-free and the other was supplemented with an excess of biotin. The samples were then mixed with denaturing SDS-PAGE sample buffer (containing β-mercaptoethanol) and incubated at a given temperature for 20 minutes. After heat treatment, the samples were subjected to SDS-PAGE and visualised by staining with Coomassie brilliant blue. The relative proportions of tetrameric and monomeric forms of the AVR proteins (with avidin as the control) were detected. A similar assay, with β-mercaptoethanol omitted from the sample buffer, was performed to examine the presence of intersubunit disulfide-bridges. Sensitivity to proteinase K was studied both in the absence and in the presence of biotin as described (Laitinen, O. H., Airenne, K. J., Marttila, A. T., Kulik, T., Porkka, E., Bayer, E. A., Wilchek, M. and Kulomaa, M. S. (1999) FEBS Lett. 461, 52-8). The isoelectric point of each AVR was determined by isoelectric focusing as previously reported (Marttila, A. T., Airenne, K. J., Laitinen, O. H., Kulik, T., Bayer, E. A., Wilchek, M. and Kulomaa, M. S. (1998) FEBS Lett. 441, 313-317). The glycosylation patterns of the AVR proteins were studied by treating the proteins with Endo Hf and PNGase F glycosidase according to the manufacturer's instructions (New England Biolabs, Mass., USA).

[3] = Differential scanning calorimetry of avidin and AVR4/5 forms; type: physicochemical
Protocol: The thermodynamics of the heat-induced unfolding of the proteins were studied using DSC. The transition midpoint of heat-induced denaturation (Tm) of the avidin and different AVR4/5 forms was studied using a Nano II differential scanning calorimeter (Calorimetric Sciences Corporation, Provo, Utah, USA). The reference cell was filled with buffer whereas the sample cell was filled with proteins dissolved in 50 mM sodium phosphate buffer, pH 7.0 containing 100 mM NaCl. Avidin and AVR4/5(C124S) were also analyzed in 50 mM Na-acetate pH 4.0 containing 100 mM NaCl. Furthermore, AVR4/5 was analyzed in the presence of 2-mercaptoethanol (0.4% v/v). The samples (1.6-9.6 μM) were analyzed both in the absence and presence of a three fold molar excess of biotin/subunit. All samples were degassed before being loaded into the DSC. The thermograms were recorded as a function of temperature; between 25 and 130° C. at a rate of 55.6° C./h (Gonzalez, M., Argarana, C. E. & Fidelio, G. D. (1999) Biomol. Eng. 16, 67-72; Nordlund, H. R., Laitinen, O. H., Uotila, S. T., Nyholm, T., Hytönen, V. P., Slotte, J. P. & Kulomaa, M. S. (2003) J. Biol. Chem. 278, 2479-2483). Data was analyzed using Microcal Origin 6.0 and Cpcalc 2.1 (Applied Thermodynamics, Hunt Valley, Md.). The change in heat capacity upon unfolding (ΔCp) was measured for avidin and AVR4/5(C124S) using DSC data from measurements in pH 4.0 and 7.0. ΔCp was then obtained from the slope of ΔH vs. Tm (Liu, Y. & Sturtevant, J. M. (1996) Biochemistry 35, 3059-3062).

B1: AVR4/5: Recombinant chicken avidin-related protein 4/5 (AVR4 and AVR5 identical in coding sequence) (protein, UniProt P56734 25-150, looked up)
Avidin-related protein 4/5: ARKCSLTGKWTNNLGSIMTIRAVNSRGEFTGTYLTAVADNPGNITLSPLLGIQHKRASQPTFGFTVHWNFSESTTVFTGQCFIDRNGKEVLKTMWLLRSSVNDISYDWKATRVGYNNFTRLCTVEE
Reversibility of biotin binding [1]: 2 ± 2%
Dimeric form, relative proportion [2]: 50 percentage
Monomeric form, relative proportion [2]: 50 percentage
DSC Tm(−biotin) ([3]; 50 mM sodium phosphate pH 7.0, 100 mM NaCl): 107.4 ± 0.3 °C
ΔTm ([3]; change in Tm upon addition of a three-fold molar excess of biotin): 17.3 °C
ΔH of unfolding ([3]; sample without biotin): 194 ± 33.5 kcal/mol
DSC Tm (+biotin) ([3]; three-fold molar excess of biotin, pH 7.0): 124.7 ± 0.3 °C
